We go through 23 molecules from EP2658867B1 (Avidbiotics Corp., dated 2018).

Substitutions are numbered along the chain they refer to.

First the molecules themselves.
B1: M13 phage pKK93 displaying MICA α3 domain with loop 3.2 in loop 1 (designed binder, not shown: large carriers)
chain: TVPPMVNVTRTSRGDHPRTQVTCRASGFYPWNITLSWRQDGVSLSHDTQQWGDVLPDGNGTYQTWVATRICQGEEQRFTCYMEHSGNHSTHPVPSGK
B2: M13 phage pKK136 displaying MICA α3 domain with extended 5.1sp in loop 1 and extended 3.2sp in loop 3 (designed binder, not shown: large carriers)
chain: TVPPMVNVTSGGSGGGSVTRGDTFTQSSGGSGGGVTCRASGFYPWNITLSWRQDGVSLSHDTQQWGDVLPDGNGTYQTWVATRISGGSGGGSTSRGDHPRTQSGGSGGGCYMEHSGNHSTHPVPSGK
B3: M13 phage pKK138 displaying MICA α3 domain with extended 5.1sp in loop 1 and extended 5.3sp in loop 3 (designed binder, not shown: large carriers)
chain: B2 chain with T93H, S94L, R95A, G96R, D97G, H98D, P99D, R100L, Q102Y
B4: M13 phage pKK139 displaying MICA α3 domain with extended 5.1sp in loop 1 and extended 5.1spNH in loop 3 (designed binder, not shown: large carriers)
chain: B2 chain with T93V, S94T, H98T, P99F, R100T, T101Q, Q102S
B5: M13 phage pKK112 displaying MICA α3 domain with tight T-AMY (loop 1 from tendamistat) in loop 1 (designed binder, not shown: large carriers)
chain: TVPPMVNYQSWRYSQCRASGFYPWNITLSWRQDGVSLSHDTQQWGDVLPDGNGTYQTWVATRICQGEEQRFTCYMEHSGNHSTHPVPSGK
B6: M13 phage pKK92 displaying MICA α3 domain with loop 3.1 in loop 1 (designed binder, not shown: large carriers)
chain: TVPPMVNVTSRGDHPRTQVTCRASGFYPWNITLSWRQDGVSLSHDTQQWGDVLPDGNGTYQTWVATRICQGEEQRFTCYMEHSGNHSTHPVPSGK
B7: M13 phage pKK107 displaying MICA α3 domain with tight T-3.1 in loop 1 (designed binder, not shown: large carriers)
chain: TVPPMVNTSRGDHPRTQCRASGFYPWNITLSWRQDGVSLSHDTQQWGDVLPDGNGTYQTWVATRICQGEEQRFTCYMEHSGNHSTHPVPSGK
B8: M13 phage pKK111 displaying MICA α3 domain with tight T-5.3 in loop 1 (designed binder, not shown: large carriers)
chain: B7 chain with T8H, S9L, R10A, G11R, D12G, H13D, P14D, R15L, Q17Y
B9: M13 phage pKK109 displaying MICA α3 domain with tight T-3.3 in loop 1 (designed binder, not shown: large carriers)
chain: B7 chain with T8R, S9V, R10P, G11R, D12G, H13D, P14S, R15D, T16L, Q17T
B10: M13 phage pKK110 displaying MICA α3 domain with tight T-5.1 in loop 1 (designed binder, not shown: large carriers)
chain: B7 chain with T8V, S9T, H13T, P14F, R15T, T16Q, Q17S
B11: M13 phage pKK108 displaying MICA α3 domain with tight T-3.5 in loop 1 (designed binder)
chain: B7 chain with T8G, H13S, P14L, R15I, T16M, Q17H
notes: α3 amplified from pKK53; also called 1-T-3.5; not shown: M13 phage capsid protein pIII, C-terminal portion, fused at codon position 198
B12: M13 phage pKK97 displaying MICA α3 domain with loop 5.2 in loop 1 (designed binder, not shown: large carriers)
chain: TVPPMVNVTRGDTFTQSVTCRASGFYPWNITLSWRQDGVSLSHDTQQWGDVLPDGNGTYQTWVATRICQGEEQRFTCYMEHSGNHSTHPVPSGK
B13: M13 phage pKK100 displaying MICA α3 domain with extended loop 3.2sp in loop 1 (designed binder, not shown: large carriers)
chain: TVPPMVNVTSGGSGGGSTSRGDHPRTQSGGSGGGVTCRASGFYPWNITLSWRQDGVSLSHDTQQWGDVLPDGNGTYQTWVATRICQGEEQRFTCYMEHSGNHSTHPVPSGK
B14: M13 phage pKK102 displaying MICA α3 domain with extended loop 5.1sp in loop 1 (designed binder, not shown: large carriers)
chain: B13 chain with T18V, S19T, H23T, P24F, R25T, T26Q, Q27S
B15: M13 phage pKK103 displaying MICA α3 domain with extended loop 5.3sp in loop 1 (designed binder, not shown: large carriers)
chain: B13 chain with T18H, S19L, R20A, G21R, D22G, H23D, P24D, R25L, Q27Y
B16: M13 phage pKK101 displaying MICA α3 domain with extended loop 3.3sp in loop 1 (designed binder, not shown: large carriers)
chain: B13 chain with T18R, S19V, R20P, G21R, D22G, H23D, P24S, R25D, T26L, Q27T
B17: M13 phage pKK104 displaying MICA α3 domain with extended loop 3.2sp in loop 3 (designed binder, not shown: large carriers)
chain: TVPPMVNVTRSEASEGNITVTCRASGFYPWNITLSWRQDGVSLSHDTQQWGDVLPDGNGTYQTWVATRISGGSGGGSTSRGDHPRTQSGGSGGGCYMEHSGNHSTHPVPSGK
B18: M13 phage pKK105 displaying MICA α3 domain with extended loop 3.3sp in loop 3 (designed binder, not shown: large carriers)
chain: B17 chain with T78R, S79V, R80P, G81R, D82G, H83D, P84S, R85D, T86L, Q87T
B19: M13 phage pKK94 displaying MICA α3 domain with loop 3.3 in loop 1 (designed binder, not shown: large carriers)
chain: TVPPMVNVTRVPRGDSDLTVTCRASGFYPWNITLSWRQDGVSLSHDTQQWGDVLPDGNGTYQTWVATRICQGEEQRFTCYMEHSGNHSTHPVPSGK
B20: M13 phage pKK98 displaying MICA α3 domain with loop 5.3 in loop 1 (designed binder, not shown: large carriers)
chain: B19 chain with R10H, V11L, P12A, S16D, D17L, L18T, T19Y
B21: M13 phage pKK95 displaying MICA α3 domain with loop 3.4 in loop 1 (designed binder, not shown: large carriers)
chain: B19 chain with V11S, P12A, L18H, T19R
B22: M13 phage pKK106 displaying wild type MICA α3 domain fused to pIII (other)
chain: B19 chain with V11S, P12E, R13A, G14S, D15E, S16G, D17N, L18I
notes: also called WT; not shown: M13 phage capsid protein pIII, C-terminal portion, fused at codon position 198
B23: M13 phage pKK96 displaying MICA α3 domain with loop 5.1 in loop 1 (designed binder, not shown: large carriers)
chain: B19 chain with R10V, V11T, P12R, R13G, G14D, D15T, S16F, D17T, L18Q, T19S

T2 sequence (P06756 31-992, chain 1 of 2): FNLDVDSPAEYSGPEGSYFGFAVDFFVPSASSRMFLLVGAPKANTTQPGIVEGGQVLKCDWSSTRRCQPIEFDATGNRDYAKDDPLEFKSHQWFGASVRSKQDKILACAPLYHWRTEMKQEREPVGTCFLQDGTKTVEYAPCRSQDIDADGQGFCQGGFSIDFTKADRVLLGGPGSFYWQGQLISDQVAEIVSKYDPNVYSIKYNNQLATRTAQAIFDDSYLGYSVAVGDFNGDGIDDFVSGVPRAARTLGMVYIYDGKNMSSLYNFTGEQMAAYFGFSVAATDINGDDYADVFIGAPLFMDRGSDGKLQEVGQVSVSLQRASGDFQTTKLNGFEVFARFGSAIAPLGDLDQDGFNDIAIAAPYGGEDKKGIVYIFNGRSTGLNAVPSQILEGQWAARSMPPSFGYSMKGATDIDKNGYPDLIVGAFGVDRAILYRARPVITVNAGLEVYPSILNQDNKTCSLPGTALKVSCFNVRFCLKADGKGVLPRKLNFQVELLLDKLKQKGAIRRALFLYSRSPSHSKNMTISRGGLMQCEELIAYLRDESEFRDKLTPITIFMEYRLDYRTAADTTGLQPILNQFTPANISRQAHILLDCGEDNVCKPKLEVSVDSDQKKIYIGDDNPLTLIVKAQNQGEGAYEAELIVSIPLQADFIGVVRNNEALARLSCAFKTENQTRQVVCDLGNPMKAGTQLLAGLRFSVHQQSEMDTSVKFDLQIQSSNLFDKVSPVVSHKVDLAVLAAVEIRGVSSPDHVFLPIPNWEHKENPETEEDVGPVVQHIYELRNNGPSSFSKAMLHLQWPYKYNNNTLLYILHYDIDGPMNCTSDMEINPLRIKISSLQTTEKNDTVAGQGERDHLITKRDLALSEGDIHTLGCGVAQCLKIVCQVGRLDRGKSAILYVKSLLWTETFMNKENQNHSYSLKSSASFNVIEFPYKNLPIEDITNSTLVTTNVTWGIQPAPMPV
T2 sequence (P05106 27-718, chain 2 of 2): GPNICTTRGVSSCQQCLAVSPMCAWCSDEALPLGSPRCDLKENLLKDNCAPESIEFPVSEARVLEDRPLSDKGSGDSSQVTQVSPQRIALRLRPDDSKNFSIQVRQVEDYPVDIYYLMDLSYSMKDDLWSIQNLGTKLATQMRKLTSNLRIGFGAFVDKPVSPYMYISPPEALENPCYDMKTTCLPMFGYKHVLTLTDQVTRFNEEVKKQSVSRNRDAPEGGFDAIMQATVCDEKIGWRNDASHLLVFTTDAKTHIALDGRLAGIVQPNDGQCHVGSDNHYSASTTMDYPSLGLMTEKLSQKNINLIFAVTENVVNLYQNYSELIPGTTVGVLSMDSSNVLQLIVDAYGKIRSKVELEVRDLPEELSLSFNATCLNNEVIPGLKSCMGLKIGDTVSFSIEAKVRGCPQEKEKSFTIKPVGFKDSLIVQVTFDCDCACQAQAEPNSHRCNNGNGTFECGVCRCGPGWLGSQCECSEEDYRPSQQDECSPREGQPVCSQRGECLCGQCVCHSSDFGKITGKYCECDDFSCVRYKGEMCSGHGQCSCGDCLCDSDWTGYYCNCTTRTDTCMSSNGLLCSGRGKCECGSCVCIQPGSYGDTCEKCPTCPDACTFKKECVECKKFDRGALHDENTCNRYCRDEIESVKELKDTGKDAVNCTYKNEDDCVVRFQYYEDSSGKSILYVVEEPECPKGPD

For one experiment, the target named is T1, integrin αVβ5 (UniProt P06756 31-992; P18084 24-719).
T1 construct: Coated on the ELISA plate
T1 sequence (P06756 31-992, chain 1 of 2): as the sequence (P06756 31-992, chain 1 of 2) above
T1 sequence (P18084 24-719, chain 2 of 2): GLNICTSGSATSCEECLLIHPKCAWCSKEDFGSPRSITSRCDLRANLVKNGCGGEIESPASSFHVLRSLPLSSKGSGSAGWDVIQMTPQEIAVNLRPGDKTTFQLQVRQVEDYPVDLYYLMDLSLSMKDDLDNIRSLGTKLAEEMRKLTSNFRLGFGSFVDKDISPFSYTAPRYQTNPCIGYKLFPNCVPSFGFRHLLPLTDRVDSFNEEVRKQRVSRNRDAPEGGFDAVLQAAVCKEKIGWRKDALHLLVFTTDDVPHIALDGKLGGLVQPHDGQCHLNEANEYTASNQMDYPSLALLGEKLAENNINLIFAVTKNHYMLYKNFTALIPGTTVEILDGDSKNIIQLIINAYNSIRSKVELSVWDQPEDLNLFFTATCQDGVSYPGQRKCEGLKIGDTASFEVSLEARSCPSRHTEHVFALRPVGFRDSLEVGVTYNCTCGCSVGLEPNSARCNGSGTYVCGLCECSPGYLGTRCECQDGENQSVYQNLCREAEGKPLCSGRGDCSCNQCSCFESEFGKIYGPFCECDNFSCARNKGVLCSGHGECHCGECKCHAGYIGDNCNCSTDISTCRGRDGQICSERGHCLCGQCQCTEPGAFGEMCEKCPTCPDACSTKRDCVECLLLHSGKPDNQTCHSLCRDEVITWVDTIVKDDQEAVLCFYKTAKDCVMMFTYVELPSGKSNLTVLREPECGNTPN
Briefly: phage ELISA, integrin coated, anti-M13-HRP.
Conditions: not given
B1 gave a signal of 0.291 OD.
In turn, B2 yielded a signal of 4.28 OD.
Molecule B3 registered a signal of 2.75 OD.
B4 returned a signal of 5.36 OD.
The same measure, in the same setting: the result for B5 reads 0.515 OD; that for B6, 1.32 OD; that for B7, 1.49 OD.
On the same count and under the same terms, to B8 belongs 0.657 OD; to B9, 0.167 OD.
For the molecule B10, the signal came to 2.56 OD.
Same read-out and setting: the result for B11 reads -0.204 OD; that for B12, 2.59 OD; that for B13, 0.186 OD.
On the same count and under the same terms, to B14 belongs 0.771 OD.
On the same count and under the same terms, to B15 belongs 0.491 OD; to B16, 1.23 OD; to B17, 1.12 OD.
Molecule B18 yielded a signal of 1.11 OD.
The same measure, in the same setting: the result for B19 reads 2.84 OD.
The same measure, in the same setting: the result for B20 reads 1.48 OD.
The same measure, in the same setting: the result for B21 reads 0.232 OD.
The molecule B22 registered a signal of 0 OD.
Same read-out and setting: the result for B23 reads 2.42 OD.

Staying with this experiment, now noted: record 2.
With B1, the signal turned out to be 0.774 OD.
The same measure, in the same setting: to B14 belongs 1.5 OD; to B15, 0.814 OD.

The next experiment concerns the target T2, integrin αVβ3 (UniProt P06756 31-992; P05106 27-718).
T2 construct: Coated on the ELISA plate
Nature of the experiment: phage ELISA, integrin coated, anti-M13-HRP.
Conditions: not given
In the case of B1, the signal amounted to 0.284 OD.
The same measure, in the same setting: the result for B2 reads 2.46 OD; that for B3, 0.886 OD; that for B4, 2.48 OD.
B5 had a signal of 0.46 OD.
On the same count and under the same terms, the result for B6 reads 0.858 OD; that for B7, 0.999 OD; that for B8, 0.707 OD.
Same read-out and setting: to B9 belongs 0.23 OD; to B10, 1.49 OD; to B11, -0.09 OD.
Still for that read-out and setting: to B12 belongs 1.55 OD; to B13, 0.201 OD.
Molecule B14 returned a signal of 1.02 OD.
B15: the signal is 0.688 OD.
Regarding B16, the signal turned out to be 1.49 OD.
The same measure, in the same setting: the result for B17 reads 0.791 OD.
Consider B18, for which the signal was found to be 1.33 OD.
For B19, the signal was found to be 1.07 OD.
The same measure, in the same setting: to B20 belongs 1.22 OD; to B21, 0.345 OD; to B22, 0 OD.
Consider B23, for which the signal was 1.64 OD.

The same experiment, now with this note: record 2.
B1 came in with a signal of 0.616 OD.
Same read-out and setting: to B14 belongs 1.45 OD; to B15, 0.587 OD.
